This is an account of results in IntAct's records for PubMed 22081014.

B1: Breast cancer anti-estrogen resistance protein 3 (Homo sapiens), O75815-1 (parent)
chain: MAAGKFASLPRNMPVNHQFPLASSMDLLSSRSPLAEHRPDAYQDVSIHGTLPRKKKGPPPIRSCDDFSHMGTLPHSKSPRQNSPVTQDGIQESPWQDRHGETFTFRDPHLLDPTVEYVKFSKERHIMDRTPEKLKKELEEELLLSSEDLRSHAWYHGRIPRQVSENLVQRDGDFLVRDSLSSPGNFVLTCQWKNLAQHFKINRTVLRLSEAYSRVQYQFEMESFDSIPGLVRCYVGNRRPISQQSGAIIFQPINRTVPLRCLEEHYGTSPGQAREGSLTKGRPDVAKRLSLTMGGVQAREQNLPRGNLLRNKEKSGSQPACLDHMQDRRALSLKAHQSESYLPIGCKLPPQSSGVDTSPCPNSPVFRTGSEPALSPAVVRRVSSDARAGEALRGSDSQLCPKPPPKPCKVPFLKVPSSPSAWLNSEANYCELNPAFATGCGRGAKLPSCAQGSHTELLTAKQNEAPGPRNSGVNYLILDDDDRERPWEPAAAQMEKGQWDKGEFVTPLLETVSSFRPNEFESKFLPPENKPLETAMLKRAKELFTNNDPKVIAQHVLSMDCRVARILGVSEEMRRNMGVSSGLELITLPHGHQLRLDIIERHNTMAIGIAVDILGCTGTLEDRAATLSKIIQVAVELKDSMGDLYSFSALMKALEMPQITRLEKTWTALRHQYTQTAILYEKQLKPFSKLLHEGRESTCVPPNNVSVPLLMPLVTLMERQAVTFEGTDMWEKNDQSCEIMLNHLATARFMAEAADSYRMNAERILAGFQPDEEMNEICKTEFQMRLLWGSKGAQVNQTERYEKFNQILTALSRKLEPPPVKQAEL
partner: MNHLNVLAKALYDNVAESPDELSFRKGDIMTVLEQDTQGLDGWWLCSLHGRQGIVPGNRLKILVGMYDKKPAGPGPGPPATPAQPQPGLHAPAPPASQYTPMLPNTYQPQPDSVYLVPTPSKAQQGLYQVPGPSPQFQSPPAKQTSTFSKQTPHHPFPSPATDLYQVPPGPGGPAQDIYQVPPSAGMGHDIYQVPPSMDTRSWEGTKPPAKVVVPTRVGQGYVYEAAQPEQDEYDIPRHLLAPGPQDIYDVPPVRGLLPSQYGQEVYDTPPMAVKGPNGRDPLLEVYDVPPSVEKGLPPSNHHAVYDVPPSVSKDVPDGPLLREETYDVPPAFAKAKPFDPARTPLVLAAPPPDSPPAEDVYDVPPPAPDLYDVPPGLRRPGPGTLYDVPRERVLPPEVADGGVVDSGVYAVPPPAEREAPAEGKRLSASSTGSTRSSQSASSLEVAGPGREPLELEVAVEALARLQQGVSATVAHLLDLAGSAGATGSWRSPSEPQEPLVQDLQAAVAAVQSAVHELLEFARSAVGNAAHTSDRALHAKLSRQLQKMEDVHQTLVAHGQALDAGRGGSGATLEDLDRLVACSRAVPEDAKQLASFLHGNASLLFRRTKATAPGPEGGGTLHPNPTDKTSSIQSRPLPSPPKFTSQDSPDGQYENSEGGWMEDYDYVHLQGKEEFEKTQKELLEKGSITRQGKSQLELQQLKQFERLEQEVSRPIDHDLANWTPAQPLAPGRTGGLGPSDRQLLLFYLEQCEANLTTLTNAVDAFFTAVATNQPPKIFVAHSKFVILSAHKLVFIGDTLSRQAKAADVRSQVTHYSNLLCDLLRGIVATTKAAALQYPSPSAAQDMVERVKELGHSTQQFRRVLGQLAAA
B2: Breast cancer anti-estrogen resistance protein 1 (Homo sapiens), P56945 (parent)
chain: B1 partner
partner: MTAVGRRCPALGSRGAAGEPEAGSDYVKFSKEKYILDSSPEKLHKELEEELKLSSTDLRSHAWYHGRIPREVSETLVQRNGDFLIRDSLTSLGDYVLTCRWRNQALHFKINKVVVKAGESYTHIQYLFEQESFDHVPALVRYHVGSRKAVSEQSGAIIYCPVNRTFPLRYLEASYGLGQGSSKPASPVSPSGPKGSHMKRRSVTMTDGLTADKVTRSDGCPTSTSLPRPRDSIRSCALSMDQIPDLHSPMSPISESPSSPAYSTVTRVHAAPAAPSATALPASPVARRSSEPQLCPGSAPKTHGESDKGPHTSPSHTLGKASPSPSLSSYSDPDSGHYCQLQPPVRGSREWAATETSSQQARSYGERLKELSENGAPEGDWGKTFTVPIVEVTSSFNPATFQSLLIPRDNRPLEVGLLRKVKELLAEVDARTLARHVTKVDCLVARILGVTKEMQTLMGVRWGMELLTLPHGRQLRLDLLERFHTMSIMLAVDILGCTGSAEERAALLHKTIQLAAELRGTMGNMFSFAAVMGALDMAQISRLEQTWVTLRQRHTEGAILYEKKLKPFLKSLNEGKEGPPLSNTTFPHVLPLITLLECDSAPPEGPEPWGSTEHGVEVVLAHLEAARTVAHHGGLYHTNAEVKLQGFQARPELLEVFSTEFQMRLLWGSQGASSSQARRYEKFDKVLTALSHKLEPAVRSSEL
B3: SH2 domain-containing protein 3C (Homo sapiens), Q8N5H7-2 (parent)
chain: B2 partner
partner: B1 partner

Variants of B1 are the subject of one experiment. The note with it: with bcar1_human BCAR1, P56945.
For R748E, the “effect of a mutation on the interaction” value was “disrupting interaction”. Same read-out and setting: the result for L744E reads “disrupting interaction”.

The variants in a further experiment derive from B2. The note with it: with SH2D3C.
F794R: the “effect of a mutation on the interaction” value is “disrupting interaction”. Consider L787E, for which the “effect of a mutation on the interaction” value was “disrupting interaction”.

A further experiment covers variants of B2. The following applies: with SH2D3C. The source holds these as a separate data set.
In the case of F794R, the “effect of a mutation on the interaction” value was “decreasing interaction”.

Take F794E;D797R: the “effect of a mutation on the interaction” value is listed as “disrupting interaction”. With L787E;F794R, the “effect of a mutation on the interaction” value is “disrupting interaction”. As to D797R, the “effect of a mutation on the interaction” value is “decreasing interaction”.

Turning to L787E, the “effect of a mutation on the interaction” value is reported as “decreasing interaction”.

In another experiment the parent is B3. The note with it: with bcar1_human BCAR1, P56945.
In the case of L469R, the “effect of a mutation on the interaction” value was “decreasing interaction”. As for R627E, the “effect of a mutation on the interaction” value is given as “decreasing interaction”. Consider L623E, for which the “effect of a mutation on the interaction” value was “disrupting interaction”.

The variants in another experiment derive from B3. The note with it: with bcar1_human BCAR1, P56945. The source holds these as a separate data set.
Consider L469R, for which the “effect of a mutation on the interaction” value was “disrupting interaction”.
